Data set [1] concerns EppR (TetR-like error-prone polymerase regulator) (Acinetobacter baumannii ATCC 17978). Description: EMSA. Background: A gel shift assay detects complexes by their altered migration in electrophoresis.
The data set “SEC” deals with the molecule itself. Description: SEC. For orientation: SEC sorts molecules by how far they enter the pores of the column.

As a reminder, the Kd is the constant that tells how readily two partners part at equilibrium. In the case of “recA regulatory region (promoter + 5'-UTR), 145 bp”, in data set [1], the Kd is 1100 nM.

B1: His-tagged A. baumannii RecA (natural protein, Acinetobacter baumannii, UniProt A3M645 1-349, looked up)
chain: MDENKSKALQAALSQIEKQFGKNTVMRLGDNTVQAVEAVSTGSLTLDIALGIGGLPKGRIIEIYGPESSGKTTMTLQAIAQCQKSGGTCAFIDAEHALDPQYARKLGVDIDNLLVSQPDNGEQALEIADMLVRSGAIDLIVVDSVAALTPKAEIEGEMGDSHMGLQARLMSQALRKITGNAKRSNCMVIFINQIRMKIGVMFGSPETTTGGNALKFYASVRLDIRRIGQVKEGDEIVGSETKVKVVKNKMAPPFKEAIFQILYGKGTNQLGELVDLAVQQDIVQKAGAWYSYQGNKIGQGKNNVIRYFEENTQIAEEIERNIREQLLTTGTNGAVQIEDEEEPDLLLES
On to B1, for which the binding result in “SEC” is on record as “binds”.

The values above are taken from paper doi:10.1101/2025.06.05.658052 (bioRxiv, 2025).
